Assay results from PMC4545359.

Biological target: T1, CRP-His6 (cAMP receptor protein) (Vibrio cholerae C6706) (UniProt O34015)
T1 sequence: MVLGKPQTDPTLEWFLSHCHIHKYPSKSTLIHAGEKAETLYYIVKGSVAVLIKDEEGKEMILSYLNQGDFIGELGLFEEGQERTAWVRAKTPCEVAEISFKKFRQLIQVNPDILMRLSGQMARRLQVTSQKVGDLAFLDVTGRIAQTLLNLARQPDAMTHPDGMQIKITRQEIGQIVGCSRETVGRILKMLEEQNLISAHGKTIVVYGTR
Test: EMSA
Settings: 10 mM Tris pH 7.5, 1 mM EDTA, 100 mM KCl, 0.1 mM DTT, 5% glycerol, 0.01 mg/ml BSA; CRP 11 ng/ul, promoter DNA 2.5 ng/ul, 75 ng NS DNA; 1 h at room temperature …

Sequence: CAGTGGATTAGCGTATGGACACGGCTACGTTTCCGCAGTGGAAAACGGTGTCGCCGAAGGACGTGTCACCTTGTGTAAATTTGCCGCTAACGGCACTGGAAAAAAAAACACTCACTGTGGCGCGATTCAATAC (double strand) [non-specific control 133 bp fragment (NS)]
- binding: no binding
